Source: patent publication US20250043302A1, “MUTATED HYDROXYPHENYLPYRUVATE DIOXYGENASE POLYPEPTIDE, AND CODING GENE AND USE THEREOF” (BEIJING DABEINONG BIOTECHNOLOGY CO., LTD., priority 2021, published 2025)

Tests used:
Format in all cases: in vivo
[1] = test system: Arabidopsis thaliana T1 plants; assay: Topramezone tolerance of transgenic Arabidopsis thaliana T1 plants (spray, bleached leaf area grade, damage score); details: Table 13; for Classification and statistics of the grade of pesticide damage Grade 0: number of plants at grade 0; for Classification and statistics of the grade of pesticide damage Grade 1: number of plants at grade 1; for Classification and statistics of the grade of pesticide damage Grade 2: number of plants at grade 2; for Classification and statistics of the grade of pesticide damage Grade 3: number of plants at grade 3; for Scores: pesticide damage score
In short: (§1)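 Read-out: per-plant damage grade 0–3 from proportion of bleached leaf area at 7 DAT (1 <50%, 2 >50%, 3 100%). Plants were T1 transformants, glufosinate-selected, plus wild-type CK, sprayed 18 days post-sowing. Rates: topramezone 25–200, isoxaflutole 35–280, mesotrione 52.5–420 g ai/ha.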

[2] = test system: Arabidopsis thaliana T1 plants; assay: Mesotrione tolerance of transgenic Arabidopsis thaliana T1 plants (spray, bleached leaf area grade, damage score); parameters: Scores: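 damage score 0-100 computed as Σ(N×S)/(T×M)×100 over grades 0-3 with higher meaning more damage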; details: for Classification and statistics of the grade of pesticide damage Grade 0 / Classification and statistics of the grade of pesticide damage Grade 1 / Classification and statistics of the grade of pesticide damage Grade 2 / Classification and statistics of the grade of pesticide damage Grade 3: number of plants in grade
In short: as §1

[3] = test system: Arabidopsis thaliana T1 plants; assay: Isoxaflutole tolerance of transgenic Arabidopsis thaliana T1 plants (spray, bleached leaf area grade, damage score); details: for Classification and statistics of the grade of pesticide damage Grade 0 / Classification and statistics of the grade of pesticide damage Grade 1 / Classification and statistics of the grade of pesticide damage Grade 2 / Classification and statistics of the grade of pesticide damage Grade 3: number of plants in grade;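 as to Scores: Weighted damage index from 0 to 100 where higher means more damage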
In short: as §1

| Molecule | Resistance evaluation ([1]; topramezone 25 g ai/ha (1×)) | Classification and statistics of the grade of pesticide damage Grade 0 ([1]; topramezone 25 g ai/ha (1×)) | Classification and statistics of the grade of pesticide damage Grade 1 ([1]; topramezone 25 g ai/ha (1×)) | Classification and statistics of the grade of pesticide damage Grade 2 ([1]; topramezone 25 g ai/ha (1×)) | Classification and statistics of the grade of pesticide damage Grade 3 ([1]; topramezone 25 g ai/ha (1×)) | Scores ([1]; topramezone 25 g ai/ha (1×)) | Resistance evaluation ([1]; topramezone 100 g ai/ha (4×)) | Classification and statistics of the grade of pesticide damage Grade 0 ([1]; topramezone 100 g ai/ha (4×)) | Classification and statistics of the grade of pesticide damage Grade 1 ([1]; topramezone 100 g ai/ha (4×)) | Classification and statistics of the grade of pesticide damage Grade 2 ([1]; topramezone 100 g ai/ha (4×)) | Classification and statistics of the grade of pesticide damage Grade 3 ([1]; topramezone 100 g ai/ha (4×)) | Scores ([1]; topramezone 100 g ai/ha (4×)) | Resistance evaluation ([2]; mesotrione 52.5 g ai/ha) | Scores ([2]; mesotrione 52.5 g ai/ha) | Classification and statistics of the grade of pesticide damage Grade 0 ([2]; mesotrione 52.5 g ai/ha) | Classification and statistics of the grade of pesticide damage Grade 1 ([2]; mesotrione 52.5 g ai/ha) | Classification and statistics of the grade of pesticide damage Grade 2 ([2]; mesotrione 52.5 g ai/ha) | Classification and statistics of the grade of pesticide damage Grade 3 ([2]; mesotrione 52.5 g ai/ha) | Resistance evaluation ([2]; mesotrione 105 g ai/ha) | Scores ([2]; mesotrione 105 g ai/ha) | other results |
| --- | --- | --- | --- | --- | --- | --- | --- | --- | --- | --- | --- | --- | --- | --- | --- | --- | --- | --- | --- | --- | --- |
| AtHPPDm-F383Y-02: nucleotide sequence encoding Arabidopsis thaliana HPPD with F383Y; vector DBN11797 (nucleic acid, AtHPPDm-F383Y-02 Nucleotide Sequence, vector DBN11797) DNA: ATGGGACATCAGAATGCTGCTGTATCAGAAAATCAAAATCATGATGATGGAGCCGCCTCCTCACCAGGGTTTAAGTTGGTTGGGTTCTCCAAGTTTGTACGGAAGAACCCAAAATCCGACAAGTTCAAGGTTAAACGCTTCCACCACATTGAATTCTGGTGCGGCGACGCCACCAATGTTGCTCGGCGTTTTTCATGGGGTTTAGGCATGAGATTCTCAGCAAAGAGTGACCTGAGCACCGGCAACATGGTTCATGCTAGCTATCTCTTAACATCTGGAGATTTGAGGTTTCTTTTCACGGCGCCGTACTCACCATCACTCTCCGCCGGCGAGATCAAACCCACCACGACTGCAAGCATACCTTCATTTGATCATGGTAGTTGCAGATCCTTCTTCTCGTCGCACGGCCTAGGGGTGCGCGCGGTCGCCATCGAAGTTGAAGATGCAGAATCAGCGTTTAGTATCAGCGTGGCAAATGGAGCTATTCCTTCCTCCCCTCCAATTGTCCTCAATGAGGCTGTAACTATTGCCGAGGTGAAGTTGTATGGAGATGTTGTGCTGAGATATGTTTCTTACAAGGCAGAGGACACTGAGAAATCTGAATTTTTGCCTGGTTTTGAAAGGGTCGAGGATGCTTCAAGTTTTCCTCTTGATTACGGCATACGACGGTTGGATCACGCGGTTGGAAATGTACCAGAACTTGGGCCGGCGCTCACTTATGTGGCTGGTTTCACTGGATTCCATCAATTTGCTGAGTTCACAGCTGATGATGTTGGGACTGCTGAAAGTGGGTTGAACTCTGCAGTCCTCGCCTCTAATGATGAAATGGTGCTCCTCCCGATCAACGAGCCTGTGCATGGCACCAAAAGGAAATCACAAATACAGACATATCTTGAGCACAATGAAGGTGCAGGGCTTCAACATCTTGCACTGATGTCTGAAGACATTTTCCGTACGCTGAGAGAGATGAGGAAGAGAAGTAGTATTGGTGGATTTGACTTCATGCCTTCTCCCCCACCAACTTACTACCAGAACTTGAAGAAGAGGGTTGGTGATGTGCTATCTGATGACCAGATCAAGGAGTGTGAAGAATTGGGCATTCTTGTTGATCGGGACGACCAAGGAACATTACTGCAGATATTTACAAAACCACTTGGTGACCGCCCCACTATTTATATTGAGATCATACAAAGAGTCGGCTGCATGATGAAGGATGAGGAAGGAAAAGCATATCAATCTGGTGGTTGTGGCGGCTTTGGGAAAGGAAACTTCTCTGAGCTGTTCAAATCCATCGAGGAGTATGAGAAGACCTTGGAGGCCAAGCAGCTCGTGGGTTGA | Non-resistant | 0 | 0 | 0 | 16 | 100 | Non-resistant | 0 | 0 | 0 | 16 | 100 | Non-resistant | 100 | 0 | 0 | 0 | 16 | Non-resistant | 100 | Classification and statistics of the grade of pesticide damage Grade 0 ([2]; mesotrione 105 g ai/ha): 0; Classification and statistics of the grade of pesticide damage Grade 1 ([2]; mesotrione 105 g ai/ha): 0; Classification and statistics of the grade of pesticide damage Grade 2 ([2]; mesotrione 105 g ai/ha): 0; Classification and statistics of the grade of pesticide damage Grade 3 ([2]; mesotrione 105 g ai/ha): 16; Resistance evaluation ([3]; isoxaflutole 35 g ai/ha): Non-resistant; Scores ([3]; isoxaflutole 35 g ai/ha): 100; Classification and statistics of the grade of pesticide damage Grade 0 ([3]; isoxaflutole 35 g ai/ha): 0; Classification and statistics of the grade of pesticide damage Grade 1 ([3]; isoxaflutole 35 g ai/ha): 0; Classification and statistics of the grade of pesticide damage Grade 2 ([3]; isoxaflutole 35 g ai/ha): 0; Classification and statistics of the grade of pesticide damage Grade 3 ([3]; isoxaflutole 35 g ai/ha): 16; Resistance evaluation ([3]; isoxaflutole 70 g ai/ha): Non-resistant; Scores ([3]; isoxaflutole 70 g ai/ha): 100; Classification and statistics of the grade of pesticide damage Grade 0 ([3]; isoxaflutole 70 g ai/ha): 0; Classification and statistics of the grade of pesticide damage Grade 1 ([3]; isoxaflutole 70 g ai/ha): 0; Classification and statistics of the grade of pesticide damage Grade 2 ([3]; isoxaflutole 70 g ai/ha): 0; Classification and statistics of the grade of pesticide damage Grade 3 ([3]; isoxaflutole 70 g ai/ha): 16 |
| AtHPPDm-F372A-F383Y-02: nucleotide sequence encoding Arabidopsis thaliana HPPD with F372A+F383Y; vector DBN11798 (nucleic acid, AtHPPDm-F372A-F383Y-02 Nucleotide Sequence, vector DBN11798) DNA: ATGGGACATCAGAATGCTGCTGTATCAGAAAATCAAAATCATGATGATGGAGCCGCCTCCTCACCAGGGTTTAAGTTGGTTGGGTTCTCCAAGTTTGTACGGAAGAACCCAAAATCCGACAAGTTCAAGGTTAAACGCTTCCACCACATTGAATTCTGGTGCGGCGACGCCACCAATGTTGCTCGGCGTTTTTCATGGGGTTTAGGCATGAGATTCTCAGCAAAGAGTGACCTGAGCACCGGCAACATGGTTCATGCTAGCTATCTCTTAACATCTGGAGATTTGAGGTTTCTTTTCACGGCGCCGTACTCACCATCACTCTCCGCCGGCGAGATCAAACCCACCACGACTGCAAGCATACCTTCATTTGATCATGGTAGTTGCAGATCCTTCTTCTCGTCGCACGGCCTAGGGGTGCGCGCGGTCGCCATCGAAGTTGAAGATGCAGAATCAGCGTTTAGTATCAGCGTGGCAAATGGAGCTATTCCTTCCTCCCCTCCAATTGTCCTCAATGAGGCTGTAACTATTGCCGAGGTGAAGTTGTATGGAGATGTTGTGCTGAGATATGTTTCTTACAAGGCAGAGGACACTGAGAAATCTGAATTTTTGCCTGGTTTTGAAAGGGTCGAGGATGCTTCAAGTTTTCCTCTTGATTACGGCATACGACGGTTGGATCACGCGGTTGGAAATGTACCAGAACTTGGGCCGGCGCTCACTTATGTGGCTGGTTTCACTGGATTCCATCAATTTGCTGAGTTCACAGCTGATGATGTTGGGACTGCTGAAAGTGGGTTGAACTCTGCAGTCCTCGCCTCTAATGATGAAATGGTGCTCCTCCCGATCAACGAGCCTGTGCATGGCACCAAAAGGAAATCACAAATACAGACATATCTTGAGCACAATGAAGGTGCAGGGCTTCAACATCTTGCACTGATGTCTGAAGACATTTTCCGTACGCTGAGAGAGATGAGGAAGAGAAGTAGTATTGGTGGATTTGACTTCATGCCTTCTCCCCCACCAACTTACTACCAGAACTTGAAGAAGAGGGTTGGTGATGTGCTATCTGATGACCAGATCAAGGAGTGTGAAGAATTGGGCATTCTTGTTGATCGGGACGACCAAGGAACATTACTGCAGATAGCCACAAAACCACTTGGTGACCGCCCCACTATTTATATTGAGATCATACAAAGAGTCGGCTGCATGATGAAGGATGAGGAAGGAAAAGCATATCAATCTGGTGGTTGTGGCGGCTTTGGGAAAGGAAACTTCTCTGAGCTGTTCAAATCCATCGAGGAGTATGAGAAGACCTTGGAGGCCAAGCAGCTCGTGGGTTGA | Poorly | 4 | 4 | 8 | 0 | 42 | Non-resistant | 0 | 0 | 4 | 12 | 92 | Poorly resistant | 63 | 0 | 5 | 8 | 3 | Non-resistant | 100 | Classification and statistics of the grade of pesticide damage Grade 0 ([2]; mesotrione 105 g ai/ha): 0; Classification and statistics of the grade of pesticide damage Grade 1 ([2]; mesotrione 105 g ai/ha): 0; Classification and statistics of the grade of pesticide damage Grade 2 ([2]; mesotrione 105 g ai/ha): 0; Classification and statistics of the grade of pesticide damage Grade 3 ([2]; mesotrione 105 g ai/ha): 16; Resistance evaluation ([3]; isoxaflutole 35 g ai/ha): Poorly; Scores ([3]; isoxaflutole 35 g ai/ha): 56; Classification and statistics of the grade of pesticide damage Grade 0 ([3]; isoxaflutole 35 g ai/ha): 0; Classification and statistics of the grade of pesticide damage Grade 1 ([3]; isoxaflutole 35 g ai/ha): 9; Classification and statistics of the grade of pesticide damage Grade 2 ([3]; isoxaflutole 35 g ai/ha): 3; Classification and statistics of the grade of pesticide damage Grade 3 ([3]; isoxaflutole 35 g ai/ha): 4; Resistance evaluation ([3]; isoxaflutole 70 g ai/ha): Non-resistant; Scores ([3]; isoxaflutole 70 g ai/ha): 100; Classification and statistics of the grade of pesticide damage Grade 0 ([3]; isoxaflutole 70 g ai/ha): 0; Classification and statistics of the grade of pesticide damage Grade 1 ([3]; isoxaflutole 70 g ai/ha): 0; Classification and statistics of the grade of pesticide damage Grade 2 ([3]; isoxaflutole 70 g ai/ha): 0; Classification and statistics of the grade of pesticide damage Grade 3 ([3]; isoxaflutole 70 g ai/ha): 16 |
